B1: ATP synthase c-subunit from Mycobacterium smegmatis (natural protein, UniProt A0R205 1-86, looked up)
chain: MDLDPNAIITAGALIGGGLIMGGGAIGAGIGDGIAGNALISGIARQPEAQGRLFTPFFITVGLVEAAYFINLAFMALFVFATPGLQ
notes: ATP synthase subunit c, M. smegmatis mc2 155, encoded in the entire atp operon; modelled in substate S1a (PDB 7NJK): 3-86 in all nine copies; Nine copies form the c9-ring of the rotor; in the rows with a and ε the subunit stands in that ring; also called c9-ring; c-ring
B2: ATP synthase bδ-subunit from Mycobacterium smegmatis (natural protein, UniProt A0R203 1-445, looked up)
chain: MSIFIGQLIGFAVIAFIIVKWVVPPVRTLMRNQQEAVRAALAESAEAAKKLADADAMHAKALADAKAESEKVTEEAKQDSERIAAQLSEQAGSEAERIKAQGAQQIQLMRQQLIRQLRTGLGAEAVNKAAEIVRAHVADPQAQSATVDRFLSELEQMAPSSVVIDTAATSRLRAASRQSLAALVEKFDSVAGGLDADGLTNLADELASVAKLLLSETALNKHLAEPTDDSAPKVRLLERLLSDKVSATTLDLLRTAVSNRWSTESNLIDAVEHTARLALLKRAEIAGEVDEVEEQLFRFGRVLDAEPRLSALLSDYTTPAEGRVALLDKALTGRPGVNQTAAALLSQTVGLLRGERADEAVIDLAELAVSRRGEVVAHVSAAAELSDAQRTRLTEVLSRIYGRPVSVQLHVDPELLGGLSITVGDEVIDGSIASRLAAAQTGLPD
notes: ATP synthase subunit bδ (natural fusion of a b-domain, a linking domain and a δ-domain), M. smegmatis mc2 155, encoded in the entire atp operon; modelled in substate S1a (PDB 7NJK): 1-162, 169-444; One copy in the enzyme; part of the peripheral stalk; also called fused bδ-subunit
B3: ATP synthase ε-subunit from Mycobacterium smegmatis (natural protein, UniProt A0R1Z9 1-121, looked up)
chain: MADLNVEIVAVERELWSGPATFVFTRTTAGEIGILPRHIPLVAQLVDDAMVRVEREGEDDLRIAVDGGFLSVTEETVRILVENAQFESEIDADAAKEDAASDDERTAAWGRARLRALGQID
notes: ATP synthase subunit ε, M. smegmatis mc2 155, encoded in the entire atp operon; modelled in substate S1a (PDB 7NJK): 3-120; One copy in the enzyme
B4: ATP synthase β-subunit from Mycobacterium smegmatis (natural protein, UniProt A0R200 1-475, looked up)
chain: MTATAEKTAGRVVRITGPVVDVEFPRGSVPELFNALHAEITFGALAKTLTLEVAQHLGDSLVRCISMQPTDGLVRGVEVTDTGASISVPVGDGVKGHVFNALGDCLDDPGYGKDFEHWSIHRKPPAFSDLEPRTEMLETGLKVVDLLTPYVRGGKIALFGGAGVGKTVLIQEMINRIARNFGGTSVFAGVGERTREGNDLWVELADANVLKDTALVFGQMDEPPGTRMRVALSALTMAEFFRDEQGQDVLLFIDNIFRFTQAGSEVSTLLGRMPSAVGYQPTLADEMGELQERITSTRGRSITSMQAVYVPADDYTDPAPATTFAHLDATTELSRAVFSKGIFPAVDPLASSSTILDPAIVGDEHYRVAQEVIRILQRYKDLQDIIAILGIDELSEEDKQLVNRARRIERFLSQNMMAAEQFTGQPGSTVPLKETIEAFDKLTKGEFDHLPEQAFFLIGGLDDLAKKAESLGAKL
notes: ATP synthase subunit β, M. smegmatis mc2 155, encoded in the entire atp operon; modelled in substate S1a (PDB 7NJK): βE 8-471; βTP 7-475; βDP 8-475; Three copies in the enzyme (α3β3); also called βE; βTP
B5: ATP synthase a-subunit from Mycobacterium smegmatis (natural protein, UniProt A0R206 1-252, looked up)
chain: MLAAEEGGAAIHVGHHTLVFELFGMTFNGDTILATAVTAVIVIALAFYLRAKVTSTGVPSGVQLFWEALTIQMRQQIEGSIGMKIAPFVLPLSVTIFVFILISNWLAVLPLQYGGADGAAAELYKAPASDINFVLALALFVFVCYHAAGIWRRGIVGHPIKVVKGHVAFLAPINIVEELAKPISLALRLFGNIFAGGILVALIAMFPWYIQWFPNAVWKTFDLFVGLIQAFIFSLLTILYFSQSMELDHEDH
notes: ATP synthase subunit a, M. smegmatis mc2 155, encoded in the entire atp operon; modelled in substate S1a (PDB 7NJK): 10-247; One copy in the enzyme
B6: ATP synthase b′-subunit from Mycobacterium smegmatis with a C-terminal His10-tag (natural protein, UniProt A0R204 1-170, looked up)
chain: MGEFSATILAASQAAEEGGGGSNFLIPNGTFFAVLIIFLIVLGVISKWVVPPISKVLAEREAMLAKTAADNRKSAEQVAAAQADYEKEMAEARAQASALRDEARAAGRSVVDEKRAQASGEVAQTLTQADQQLSAQGDQVRSGLESSVDGLSAKLASRILGVDVNSGGTQ
notes: ATP synthase subunit b′, M. smegmatis mc2 155, encoded in the entire atp operon; modelled in substate S1a (PDB 7NJK): 22-166; residues 1 to 21 had no density but are present in the assembled enzyme; One copy in the enzyme; part of the peripheral stalk; No removal of the tag is told; also called b-subunit (in some sentences)
B7: ATP synthase γ-subunit from Mycobacterium smegmatis (natural protein, UniProt A0R201 1-307, looked up)
chain: MAATLRELRGRIRSAGSIKKITKAQELIATSRIAKAQARVEAARPYAAEITNMLTELAGASALDHPLLVERKQPKRAGVLVVSSDRGLCGAYNANVLRRAEELFSLLRDEGKDPVLYVVGRKALGYFSFRQRTVVESWTGFSERPTYENAREIADTLVNAFMAGADDEGDDAGADGILGVDELHIVFTEFRSMLSQTAVARRAAPMEVEYVGEVETGPRTLYSFEPDPETLFDALLPRYIATRVYAALLEAAASESASRRRAMKSATDNADDLIKALTLAANRERQAQITQEISEIVGGANALAGSK
notes: ATP synthase subunit γ, M. smegmatis mc2 155, encoded in the entire atp operon; modelled in substate S1a (PDB 7NJK): 3-213, 220-304; One copy in the enzyme

Tests used:
Experiment in all cases: cryo-EM structure; single particles of the ATP synthase purified in detergent and inhibited with bedaquiline (25 μM); 63 maps and 27 models, resolutions 2.11 to 4.15 Å; states S1 to S3 and substates
[1] = biological target: B3; details: both partners purified
[2] = biological target: B5; details: both partners purified
[3] = biological target: the molecule itself
[4] = biological target: T1, ATP synthase α-subunit from Mycobacterium smegmatis (Mycobacterium smegmatis, UniProt A0R202 1-548); details: both partners purified
T1 construct: ATP synthase subunit α, M. smegmatis mc2 155, encoded in the entire atp operon; modelled in substate S1a (PDB 7NJK): αE 5-21, 29-406, 411-521; αTP 5-21, 29-406, 411-521; αDP 6-406, 413-521, 527-545; Three copies in the enzyme (α3β3); also called αE; αTP
T1 sequence (A0R202 whole entry): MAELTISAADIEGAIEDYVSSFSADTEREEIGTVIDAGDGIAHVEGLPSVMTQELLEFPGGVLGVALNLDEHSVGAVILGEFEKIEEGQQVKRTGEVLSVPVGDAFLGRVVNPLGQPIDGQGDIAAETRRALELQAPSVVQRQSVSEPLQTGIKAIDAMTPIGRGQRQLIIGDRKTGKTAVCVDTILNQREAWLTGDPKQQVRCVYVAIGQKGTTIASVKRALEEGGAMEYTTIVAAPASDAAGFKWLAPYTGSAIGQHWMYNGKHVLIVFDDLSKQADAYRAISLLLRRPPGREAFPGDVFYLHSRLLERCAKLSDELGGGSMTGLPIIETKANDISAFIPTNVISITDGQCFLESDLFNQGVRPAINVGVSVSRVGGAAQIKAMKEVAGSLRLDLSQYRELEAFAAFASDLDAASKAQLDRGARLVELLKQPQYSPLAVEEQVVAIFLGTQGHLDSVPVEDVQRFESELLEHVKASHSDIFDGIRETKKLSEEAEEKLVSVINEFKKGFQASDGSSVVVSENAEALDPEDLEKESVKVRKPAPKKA

[5] = biological target: B7; details: both partners purified
[6] = biological target: B2; details: both partners purified

B1
binding result [1]: binds
binding result [2]: binds
stoichiometry N [3]: 9

B2
binding result [4]: binds

B3
binding result [5]: binds

B4
binding result [4]: binds

B5
binding result [6]: binds

B6
binding result [6]: binds
binding result [4]: binds
binding result [5]: binds
binding result [2]: binds

B7
binding result [4]: binds

Reference: PMC8617483, “Structure of the ATP synthase from Mycobacterium smegmatis provides targets for treating tuberculosis” (Proceedings of the National Academy of Sciences of the …, 2021)
